Results from article PMC7252695.

Key:
[1] = molecular target: T1, GST-TEK (Arabidopsis thaliana) (UniProt Q9SJG4); test: competition; settings: EMSA according to manufacturer's instructions (Thermo Scientific); buffer, salt, pH and temperature not stated
T1 sequence: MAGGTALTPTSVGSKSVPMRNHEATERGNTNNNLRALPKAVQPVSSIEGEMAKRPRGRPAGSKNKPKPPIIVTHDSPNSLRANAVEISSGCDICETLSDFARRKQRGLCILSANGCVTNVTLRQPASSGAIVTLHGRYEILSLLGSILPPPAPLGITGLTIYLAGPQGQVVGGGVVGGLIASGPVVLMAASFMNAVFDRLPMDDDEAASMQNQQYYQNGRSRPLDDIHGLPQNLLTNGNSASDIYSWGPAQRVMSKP

[2] = molecular target: T1, GST-TEK (Arabidopsis thaliana); test: EMSA; settings: EMSA according to manufacturer's instructions (Thermo Scientific); buffer, salt, pH and temperature not stated

Q: “GCCCATATATAGTATCTTCCGCTGTTGTATATCTTGAGCAGCTTGAGGAAGCCTTTGCAAAAAAATAGAGTGAATTTTGAGTACAGTATGAATATCATTCAACAACATTTTCCATCCAAGCGACTTAGAAAATAAAATTTTGTCAGCTACCTTAAACTGTGTTTACGTCCTAAAAATTTGCACCAA (double strand) [CalS5 P11 unlabeled competitor]” was tested. Which binding [1] did it give?
A: binds

Q: For “GCCCATATATAGTATCTTCCGCTGTTGTATATCTTGAGCAGCTTGAGGAAGCCTTTGCAAAAAAATAGAGTGAATTTTGAGTACAGTATGAATATCATTCAACAACATTTTCCATCCAAGCGACTTAGAAAATAAAATTTTGTCAGCTACCTTAAACTGTGTTTACGTCCTAAAAATTTGCACCAA (double strand) [CalS5 P11 fragment]”, which binding [2] is on record?
A: binds
